Reference: the domain aggregation screens of Martell et al. (2025)

Assay: soluble fraction after stress (log2 fold change); higher = more stays soluble; pooled small domains, quantitative proteomics
Conditions: stress: 50 degC
Outline: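 The stress applied to every library was 50°C. These custom libraries of small protein domains were pooled and measured at high throughput with quantitative proteomics as the read-out. Aggregation propensity is expressed as the base-two logarithm of the fold change in how much of each protein remains soluble. The higher the value, the more of that protein stays in solution.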

| Sequence | soluble fraction (log2) |
| --- | --- |
| HMVDITPDLIRTLLERFGEYGVTKEHIEARIQRHIESILPAQVVQLRKTYNSLKDGMSQPSDWFDI | -1.26 |
| HMVDLEINGRQTLQFVANKYGIPVEKLATDLNIPSDRFGEKLGRLRRQYAFTMNDVRKSILKNK | 0.00739 |
| HMVDPELFIWVESSKEPVYHLAYKIELFVHSTDPQDDVPVHRWQVFVDAHNGNILDKFDEVR | -0.159 |
| HMVDPRWETPDENLAEQIKSVMPVMWVYDREAKSFVERPAIDFSFSIFERTTLYIYDKDGNEIGFAR | -0.028 |
| HMVDQVDKDRFLEALTQLGGSAGNVRLRETLQWEEEVYVIIKDALVKSGTILTGRGRGGSVLLASA | -1.12 |
| HMVDSLTIGRRIRQLRTERGMTLEELAAAVGRAPSQLSMIENGRREPKLTLLQAIARALGSTLDALLE | -0.116 |
| HMVDVNLLKYYVMESGKSLTDVAAAIGVTPATLHRKMSGESDFYRKEMQDIASYLGLDRDTIDRIFF | -1.01 |
| HMVEDIVLTDAQIEFVKQQAKNGLSAFQISEMIWPEMSVKRFSKQHVAVLDFLREYEPAYVHDSE | 0.00709 |
| HMVEELDVQFIKLTVQGDHPWKNKKIRELSIPWDLLFVLIIRGDKSIIPNGKTTIKDGDIVVVSAPEYRG | -0.676 |
| HMVEFLMESTNGMYGIVKEGSSYYVQKGINESSLDYIGGMFMKDKNRFSSYSTALKRLELISGQET | -0.328 |
| HMVEGMQFDRGYQSPYFVTNAEKMVAELDNPYILLVEKKISSMKELLPVLEPVAQQGKSLLIISEEVEG | -0.0564 |
| HMVEGTVKWFNDEKGFGFIEQEGGKDVFVHFSAINGSGRRTLHEGQRVTMEVTQGQKGPQAENVNP | 0.181 |
| HMVEIPEFKITTFVNTDNEQIAEFENGFTDKKAEITFNNTKYVFKEKLPDQDGIRTYVYEELHE | 0.117 |
| HMVELGMSQNEFIQKFGKPFNKEMAYTYDKHKRETLFYKEDLYRGSWFIVTTAFTFVDSKLVSQEIVREER | -3.41 |
| HMVENMDEFIGRVRRLVSDRLDLLKEASDDEIRETISQVVLELSREQFLTLNEKKTVLEGVFNSMR | -0.399 |
| HMVERLVVSPGAGVFAPNKAIANGTRISVGDVLGMVGEQEVRSLFDGVLQSFISVDGERLTAHQPVAWLRT | -0.536 |
| HMVEVPKVAGMSTAQGVSELEQKGFVVNRTESYDDTVPKGNIISQTPEGGTKVPSGSAVTIKISQGAE | -0.157 |
| HMVEVPNVIGMTKPELTQQFVNLKLDGSGEGDVVVQQSPSEGSKVKEGSTVRVYFG | 0.0119 |
| HMVEVPNVSNLTLEQAENKLIQQGLQVKLEGQGEKVVAQIPQPGAVVNKKSTVILF | 0.129 |
| HMVFLPDEIFRLKVIKAGEGPEQGVGYLDDGTMVVIEGARDRIGDELEVRVTSTLQTNAGKMIFTKFE | -0.186 |
| HMVGEPEPIRYSRFLDEMKSGKLDSVVIQGDTILGVRKDKSQFKTVNPETDYSALIGALDKAGVGIEGRA | 0.146 |
| HMVGEYTVKKGDTLWKIAGQTLGSPLRYAEIYELNKDVIEEAALGRGKKNSSNGHWIFQGTVLKIPA | -0.00974 |
| HMVGIAEAMKHIADEDYGDLSAIFKQIFSDTDGGRNFSDAIRTQMRSTDSSGLRKVLSTLIMSIEE | -0.498 |
| HMVGNEEALRAIVESIIAQNTTEVASFREGKEGLIGWFLGQVMRQTGGKADPKLARQILLELLKQ | -0.242 |
| HMVGNYYDILGVPETATQDAIKKAFRSLAQQHHPDKNPDDPGAEAMFKKVSEAYQVLSDPDKRQTYDASL | 0.00894 |

| Sequence | soluble fraction (log2) |
| --- | --- |
| HMVIDFYDPQTKVIHEIKKSSAKEEAHVWQVKYYIYLFEKEEIMGVKGVLEYPLLREIVSVNF | 0.187 |
| HMVINQRKLNLLSIYSSGSEKRAIILFPTGQTKFVKVGDTLDGGRVAAIGTSEIRYLKGGNNLVLRIPG | -2.63 |
| HMVINTRHTGFVVDDLERFINFYLGLGLKLISRKVESGEYIDKLVGLKGTKLEWAKLSLPDNSMIEILKYH | -0.375 |
| HMVIREVNDNPVSAEELRLGDRVKVLSLGQNGEIVTLPDEKGELTVQVGILKAKVNLDDIMLI | 0.0226 |
| HMVISAKRMQDRRDSILDAAREAFARAGFEGTSIADIARRAGVSDGLVYRYFASKRDLLNAVLTA | -0.83 |
| HMVIVGGDVIVHYVDTEGKKISDDVVKSGNVGEDYSTDQKTILGYRFKEVQGNTSGKFTDKTQVVTYIYT | 0.404 |
| HMVKEVKVPDVEGLTTEEAIKELKKYGLAYTTKSEENTDIEEGKVIRTEPKKGSTKVKGSTVTIIESSG | -0.169 |
| HMVKFGERVKQLRLSAGMTQEQLAERIWVTKAAISNYELSERNPSPETIIKIAGVFGVTTDYLLGLED | -0.5 |
| HMVKIVWSKEGPYVGTRVRRYFSQGPVDGTVVMYAKPQKGDDVALWRISHDDGDEEDLEEQELRLAID | -1.65 |
| HMVKLQATPSQRKTLDELYVQLKKLEPTAKEDLSLLRRLENSHLVSKQEAQGLISKAIGRVGALAVEQQP | 0.0652 |
| HMVKNTIHVDLKGEVNKPGVYEVEEGTIVNDLITLANGFTKNAYQDNINLSKKLTDEMVIVVSKKGS | 0.337 |
| HMVKNVVIPDVSNKAPVDASNQLTDLGFEVVTEYKYIASDTIEEGKVVKTSPEIGSKRKYGQKITLYISSG | -0.56 |
| HMVKRAYGEYVNVKLTDADLSKLKADFPADWQERIERLSTYMASTGKTYKNHLATIRNWARRDAERVSA | 0.22 |
| HMVKVSVYPNPAVDRITISGEVKAYAVYDATGKVVMKDTDYRGGAIGVSHLPAGIYIVRTDAGAVTVNK | -0.652 |
| HMVLSVRDRMVQILDQVKTGEYKRIEDFFSADEGRTGFVVSFVAILELVKGGLLTITQSKNLAPIYVRLPN | -0.19 |
| HMVLVEEYDTKDSASTFKIGYYARYNTKYGTPSKVGSYADNQRSGIWTFYTDSLKTYFKYNYSTGLIL | 0.115 |
| HMVLVGERRQKILEVVSSGKAVTVEELSRILHVSPSTVRRDLRFLESRGLLYRTHGGAMPPV | -1.1 |
| HMVLVKFEWTPPDARILVDDHPVEARDKEMELPEGTHHVQALAPRGSGYESTVTDIEVRQGMDPVRIAL | -0.182 |
| HMVMRHTVEHDAELLAVLRLMYPASSSTKLRKMLTQGRVLVNDDVVHRAKHGVASGDTVDVIVRQRAE | -1.03 |
| HMVNFKLIGNKIAEARKKVNISQAQLAQRLFISSQAVGKWERGESMPDIITFNRLAEILGVDLNYFSE | 0.0107 |
| HMVNPDAPAPLYIVNGKETDKNIALAIKPEDVQDVRIIKNTVALQVYGEKGKNGVVIINTKPGV | 0.206 |
| HMVNSADLAAKPFIDLLVSTRQQLREAKQYDLADTIRDELTNHGITIEDKPQGSEWQYEFNPNS | 0.112 |
| HMVNTYILNNKEYPIEIIRKNNKNTYLRVKEGKIIVTTNYLTSSFTINKLIKDNTSFINKALLKEN | -0.595 |
| HMVNYKEILRLAHEGYSQRQIATNIGNSRNTVSEVLDAAKAANIAWPPEETVTNEQLGAILFPNRH | 0.204 |
| HMVNYKEILRLSAEGNSQRQIAAGSGNSRNTVIEVLEAARARGITWPLDEPVTNEQLEAILFPNRY | 0.134 |

| Sequence | soluble fraction (log2) |
| --- | --- |
| HMVPEETKQFINQLNHGSLSIRMNAANNLEKLGLLAIPEIEAALPKAHGEAAFRLPRLLHALVLRETEYF | -0.00885 |
| HMVPEMIRDVISKSIRDMGVLPDHMQINERIALIQSLKKQQILGIKGAVAETARQLGISVPTVYRYMKKG | -0.362 |
| HMVPFISVTPTSLSFAKGGESKTVDIEASGAFSVGKVPTGFNLEVVNGRITITADANTGAARNGSVEFILA | -0.0614 |
| HMVPHTTSMVAEVQERLFNLNYDPGPINGRMDQATITAITRFQRNFSLPQTGQIDEGFLNTLRDARL | -0.981 |
| HMVPLGDLSKNERRAMELAATNGNVTTRALADDAQVTKRTASTTLRRLAKRGLLEWIGKGPSDPGQFYRIP | -0.123 |
| HMVPLTPGELVGTEVRVLWWKEGRGEVIASSRGHQLTLEAHSEDPLRAGSTAVVLEAADDVLVVTS | -0.569 |
| HMVPPELEFLQSLMKIEDISELTAAIENNRDAVTDDFKEMLETVIENISGAPDTDPKLLERLKTIRTVLA | 0.0197 |
| HMVPPVVRTIYGAGGKMTATFLFPGGYEVDAASGAELPGKYRVESISLDQVVLTDKDGNRVPVGFSSVAPT | 0.0614 |
| HMVPQEVLPITLIIDGKLIEENLLYAKMTEQVLIQQLDINNIKSIKQILFAGLDSFGNFFYQEKQN | -1.8 |
| HMVPTATVGENTSTLPVRQLPGGPVLVVLVRGDIVLPLPGHAFQNGDVWREISTVNGVIGWVPDEFLDY | -1.9 |
| HMVPTVSVDRDDTLRFEGRPVDWDVLKRELGAVAGIDELKIYADAKVSALTVSKIMKSASEAGVLQFILVT | -0.188 |
| HMVQARDQNIEEGRQLVLRELDRLDLVNESLTDVAADMNMKSVEDMYAAIGAGDLRVGQVVHAVLKRAD | 0.00761 |
| HMVQDSEWWRNYQSAHDYFIQNGHLNVLRSDKKNTKLYNWIVGQRSSRWNSQGRINLLNSIGFIWDT | -3.08 |
| HMVQISNTDDLYPIVQRIVDANPQSVEDYKNGKAKALGFLVGQMMKETKGKANPSMVNDLIIKAIEE | 0.123 |
| HMVQIVINKEVQTTSQTILRENAGTSSRNIGYVDPNVKLRATLDRNSFYFIPEKKGWIMKSRVKLIEDLS | -3.79 |
| HMVQMNMLELQEEMQRDRSWIIKHLFQDEYFRRKIAKFSQFPINDSGKYLFHRKSMLKFLNDYAEEIVER | -2.56 |
| HMVQPSAAVRAHPVGAFVEQRQGLSDDQILALQKKWNEGIYARIQGTRWFLFSKDTPAVTSLLLVPDLP | -0.555 |
| HMVQVHEWTNKAGRTIKAKFVRGDAQSVTIFLGGRNFVLKIADLSEESQALARKLSAPPPPP | -0.607 |
| HMVQVPSLVGISEIEAKTLLTQAGFFVKIVEVFDANQPVGIVLAQAPSAGESRIIGSPVTITVNKAQ | -0.867 |
| HMVQVRQPAGAGDLFAKGRLHLSTGTIHTVKPLEVDLPKGRLTVVTGVSGSGKTTLILESLLPALAAAAA | 0.482 |
| HMVRSLESESVYDRQRAYEIAYQLRTEERPYSFIATQLNKAGLRPQKAARYEWYSVQELLRSA | -0.956 |
| HMVSDISTQYQKIINEALDKQPEVKLADIVTMIKEQTSNKVQNGIVENVAKQMNGIEIIKIGQAKGVRRTT | 0.116 |
| HMVSDTGAIEAIVAQVLADNPKLVEGYLATPEDKRGKAIGPFIGLTRKAAAGVNPQVVMDVLKKKLSEL | -0.0515 |
| HMVSEASELTDTINKIGSLAQALVGANKLSKTDLVGIIKKYHTSANYNSITDIGVAKNILAELEAKN | 0.0739 |
| HMVSFSIDEALVSAVKGPRSANVMSIQRQFLVRLSVERDGRVTITGANSKSVQQAREAVEAAVEEAKLHP | -0.827 |
